Measured values reported in publication PMC8831599, “Defining molecular glues with a dual-nanobody cannabidiol sensor” (Nature Communications, 2022).
One block for each binder: values may come before it. Ends that are not written are not given here.

Experiments:
Conditions in all cases: both partners purified
[1] = target: T1, DDB1-CRBN complex (CRBN Δ1-40 with full-length DDB1), tag-free (human, UniProt Q96SW2 41-442; Q16531 1-1140); test: BLI; biotinylated IKZF1 ZF2-3 or CK1α on streptavidin probe, tag-free DDB1–CRBN as analyte, no IMiD; 30 °C; 25 mM HEPES pH 7.4, 100 mM NaCl, 1 mM TCEP, 0.1% Tween-20, 0.05 mg/mL BSA
T1 construct: human cereblon (CRBN) lacking residues 1-40; human DDB1; also called CRBN–DDB1 complex; CRBN in complex with full-length DDB1; source: Hi5 insect cells, co-expressed, purified (Ni-NTA, TEV, anion exchange, SEC); not shown: SUMO-tag, N-terminal, cleaved; His-Msb-tag, N-terminal, cleaved

His-DDB1–CRBN complex = target: T2, His-DDB1–CRBN complex (human, UniProt Q96SW2 41-442; Q16531 1-1140); test: AlphaScreen or HTRF; competition without pomalidomide: 0.9 nM His-DDB1–CRBN on acceptor beads, 8.3 nM biotinylated IKZF1 ZF2-3 on donor beads, label-free IKZF1 ZF2-3 titrated
T2 construct: human cereblon (CRBN) lacking residues 1-40; human DDB1; Held on AlphaScreen acceptor beads by the His-tag; source: Hi5 insect cells, co-expressed, purified (Ni-NTA); not shown: His-Msb-tag, N-terminal, kept

GST-TIR1-ASK1 complex [2] = target: T3, GST-TIR1-ASK1 complex (Arabidopsis thaliana, UniProt Q570C0 1-594; Q39255 1-160); test: BLI; TIR1 and IAA7 degron without auxin; biotinylated IAA7 on streptavidin probe or GST-TIR1 on anti-GST probe (not told which); 30 °C; 25 mM HEPES pH 7.4, 100 mM NaCl, 1 mM TCEP, 0.1% Tween-20, 0.05 mg/mL BSA
T3 construct: F-box protein TIR1, Arabidopsis thaliana; ASK1 (SKP1 homologue), Arabidopsis thaliana; also called GST-tagged TIR1
T3 sequence (looked up) 1: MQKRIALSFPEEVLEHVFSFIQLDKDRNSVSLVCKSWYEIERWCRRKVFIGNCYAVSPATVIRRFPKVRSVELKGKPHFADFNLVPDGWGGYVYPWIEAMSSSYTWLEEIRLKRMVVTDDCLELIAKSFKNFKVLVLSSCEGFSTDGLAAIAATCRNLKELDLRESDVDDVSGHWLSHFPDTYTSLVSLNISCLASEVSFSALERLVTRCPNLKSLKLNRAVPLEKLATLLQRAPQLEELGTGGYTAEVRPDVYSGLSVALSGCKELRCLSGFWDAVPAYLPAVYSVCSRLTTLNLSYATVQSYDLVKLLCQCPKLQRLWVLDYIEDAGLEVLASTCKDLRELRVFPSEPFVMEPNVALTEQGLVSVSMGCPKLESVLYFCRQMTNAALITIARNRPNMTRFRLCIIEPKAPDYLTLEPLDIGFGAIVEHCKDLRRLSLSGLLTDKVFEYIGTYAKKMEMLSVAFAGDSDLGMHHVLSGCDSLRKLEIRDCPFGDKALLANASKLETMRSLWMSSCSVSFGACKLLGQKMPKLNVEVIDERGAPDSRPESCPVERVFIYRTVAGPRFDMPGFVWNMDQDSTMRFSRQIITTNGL
T3 sequence (looked up) 2: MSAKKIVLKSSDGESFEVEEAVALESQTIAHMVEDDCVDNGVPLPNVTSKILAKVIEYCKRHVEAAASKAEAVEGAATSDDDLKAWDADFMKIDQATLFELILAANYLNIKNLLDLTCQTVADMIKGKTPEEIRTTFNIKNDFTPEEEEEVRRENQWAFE

GST-TIR1-ASK1 complex [3] = target: T3, GST-TIR1-ASK1 complex; test: AlphaScreen or HTRF; competition without auxin: 0.9 nM GST-TIR1 on acceptor beads, 8.3 nM biotinylated IAA7 degron peptide on donor beads, label-free IAA7 degron peptide titrated

Kd [1]: 0.223 µM
B1: Biotin-labeled Avi-IKZF1 ZF2-3 (141-196) (domain or fragment, human, UniProt Q13422 141-196, looked up)
chain: {Avi‑tag(biotin)}-GERPFQCNQCGASFTQKGNLLRHIKLHSGEKPFKCHLCNYACRRRDALTGHLRTHS
modifications: cysteine pairing not given here
notes: human IKZF1 (Ikaros), zinc fingers 2-3, residues 141-196; also called biotinylated IKZF1^ZF2-3; not shown: GST, N-terminal, cleaved; Avi-tag, N-terminal, kept

IC50 (His-DDB1–CRBN complex): 0.2 to 0.3 µM
B2: Label-free IKZF1 ZF2-3 (141-196) (domain or fragment, human, UniProt Q13422 141-196, looked up)
chain: GERPFQCNQCGASFTQKGNLLRHIKLHSGEKPFKCHLCNYACRRRDALTGHLRTHS
notes: human IKZF1 (Ikaros), zinc fingers 2-3, residues 141-196; also called Avi-IKZF1^ZF2-3; not shown: GST, N-terminal, cleaved

Kd (GST-TIR1-ASK1 complex [2]): 18.5 µM
IC50 (GST-TIR1-ASK1 complex [3]): 18 to 20 µM
B3: IAA7 degron peptide, non-labeled (peptide)
chain: QVVGWPPVRNYRK
modifications: synthetic peptide, unlabelled; limits not given, taken from the IAA7 degron peptide of the TIR1-ASK1 crystal structures (13-mer, PDB 2P1Q)

Kd [1]: 2.3 µM
B4: Biotin-labeled Avi-CK1α (enzyme, human, UniProt P48729 1-337, looked up)
chain: MASSSGSKAEFIVGGKYKLVRKIGSGSFGDIYLAINITNGEEVAVKLESQKARHPQLLYESKLYKILQGGVGIPHIRWYGQEKDYNVLVMDLLGPSLEDLFNFCSRRFTMKTVLMLADQMISRIEYVHTKNFIHRDIKPDNFLMGIGRHCNKLFLIDFGLAKKYRDNRTRQHIPYREDKNLTGTARYASINAHLGIEQSRRDDMESLGYVLMYFNRTSLPWQGLKAATKKQKYEKISEKKMSTPVEVLCKGFPAEFAMYLNYCRGLRFEEAPDYMYLRQLFRILFRTLNHQYDYTFDWTMLKQKAAQQAASSSGQGQQAQTPTGKQTDKTKSNMKGF
modifications: biotin on the Avi-tag (BirA-catalyzed)
notes: human casein kinase 1 alpha (CK1α); also called CK1a; source: Hi5 insect cells, purified (Ni-NTA, TEV, cation exchange, SEC, BirA biotinylation, SEC); not shown: His-Set3, N-terminal, cleaved; Avi-tag, N-terminal, kept
